The record followed here is article PMC7610479.

The target of assay [1] is recombinant SMN (Survival Motor Neuron protein) (UniProt Q16637). In words: SPR. On the technique in general: Surface plasmon resonance follows binding to a sensor surface in real time, without labels.
Assay [2] deals with Survival Motor Neuron (SMN) protein, recombinant (UniProt Q16637). In words: SPR.

As for “purified SMN-free 80S ribosomes from NSC-34 cells depleted of SMN (complex)”, in assay [1], the equilibrium dissociation constant (Kd) was 9.8 pM, the koff was determined as 9.4e-05 s⁻¹ and the kon turned out to be 9.7e+06 M⁻¹ s⁻¹.

For “purified SMN-free 80S ribosomes from NSC-34 cells depleted from SMN (from UniProt P61255 1-145) (complex)”, the Kd in assay [2] worked out at 0.01 nM.

The Kd is the concentration at which binding is half-saturated. As usually defined, the koff is the first-order rate constant of dissociation. What is called kon is the second-order rate constant of association.
